In paper PMC5050560:

B1: Pr101 (dsDNA)
DNA 1: GTACTATACAGCCTGGAGTAG
DNA 2: CTACTCCAGGCTGTATAGTAC
B2: Pr27 (Pobg) (dsDNA)
DNA 1: ATACATAAAAGGAGTGTTGAGGCACTCCTTTTTCTTATAATACTGATGAATTTATAATGGTATTTTTGGTAATGCTAATTAAAAGTTTTTAATTAAGTAG
DNA 2: CTACTTAATTAAAAACTTTTAATTAGCATTACCAAAAATACCATTATAAATTCATCAGTATTATAAGAAAAAGGAGTGCCTCAACACTCCTTTTATGTAT
B3: Pr118 (dsDNA)
DNA 1: AACCCGTCATATGGCTTGAGTTTATACTCAAGCTTTTTTTATTGGTATATTTATATATATAAATAATTTAATATAATCAAAATGATGGGGGTATGTTACA
DNA 2: TGTAACATACCCCCATCATTTTGATTATATTAAATTATTTATATATATAAATATACCAATAAAAAAAGCTTGAGTATAAACTCAAGCCATATGACGGGTT
B4: Pr119 (dsDNA)
DNA 1: TTTCAACCACTCCTCTTAGTTTGATTTGGTAAGTTTAGGTCGGTATTTATTATATAATATAAATGAAACATTATATAATGGAAAAATTTCCCAGTAAACT
DNA 2: AGTTTACTGGGAAATTTTTCCATTATATAATGTTTCATTTATATTATATAATAAATACCGACCTAAACTTACCAAATCAAACTAAGAGGAGTGGTTGAAA
B5: Pr46 (dsDNA)
DNA 1: TTTTTTTATTTATAAACATTATTAAAAAAATATAGATGTTTTGGTTATATTCCTTGTCCTTTATAAATAGAATTATATAAACAAAGGAGGAGGACAAGAG
DNA 2: CTCTTGTCCTCCTCCTTTGTTTATATAATTCTATTTATAAAGGACAAGGAATATAACCAAAACATCTATATTTTTTTAATAATGTTTATAAATAAAAAAA
B6: Pr47 (dsDNA)
DNA 1: TCTTGACCTCGATAAGTGTCGTAAGTCAAGGGTAATTTATATATCAGTGAAAAATAATTACATTTAATCTAATGTTTTTAGAGAGGAGGATGCTATGTTA
DNA 2: TAACATAGCATCCTCCTCTCTAAAAACATTAGATTAAATGTAATTATTTTTCACTGATATATAAATTACCCTTGACTTACGACACTTATCGAGGTCAAGA

Target: cdPadR1 (Clostridium difficile R20291, UniProt A0A9R0CDW8 1-109)
Assay: EMSA; no significant binding; EMSA: 20 mM Tris pH 8.0, 120 mM KCl, 12.5% glycerol, 10 mM MgCl2, 5 mM DTT, 125 ug/mL heparin (400 ug/mL in competition), room temperature; 8% PAGE in TB
Details: protein: recombinant; tags: N-terminal Strep II; chain copies: 2; blunt

Binder	binding result
B1	no binding

Target: cdPadR1 (Clostridium difficile R20291, UniProt A0A9R0CDW8 1-109)
Assay: EMSA; 20 mM Tris pH 8.0, 120 mM KCl, 10 mM MgCl2, 5 mM DTT, 12.5% glycerol, 125 ug/mL heparin, room temperature
Details: protein: recombinant; tags: N-terminal Strep II; chain copies: 2

Binder	binding result
B2	binds
B3	binds
B4	binds
B5	binds
B6	no binding
